Test results published in article PMC3515998.

Molecular target: Gαi/o proteins (human (endogenous in HEK293T)) (UniProt P63096)
UniProt P63096, sequence (P63096 whole entry): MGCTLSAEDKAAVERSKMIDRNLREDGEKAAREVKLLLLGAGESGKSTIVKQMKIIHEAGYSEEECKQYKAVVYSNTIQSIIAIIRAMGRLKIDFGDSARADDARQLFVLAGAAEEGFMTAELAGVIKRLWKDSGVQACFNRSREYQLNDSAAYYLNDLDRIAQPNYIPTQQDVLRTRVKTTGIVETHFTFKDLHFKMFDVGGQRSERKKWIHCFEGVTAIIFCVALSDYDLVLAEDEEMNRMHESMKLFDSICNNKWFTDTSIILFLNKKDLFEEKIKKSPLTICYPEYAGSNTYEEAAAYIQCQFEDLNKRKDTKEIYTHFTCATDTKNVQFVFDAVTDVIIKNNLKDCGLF

Row | EC50 of MCH for stimulation of [35S]GTPγS binding to membranes of transfected HEK293T cells (0.001-1000 nM MCH, 30 min, 30°C) [nM] | basal [35S]GTPγS binding to membranes (no MCH), percent of Flag-MCHR1 [%] | maximal [35S]GTPγS binding to membranes with 1 μM MCH, percent of basal | Substance
1 | 0.47 | 97.6 | 191 % of basal | F318K mutant of Flag-tagged rat MCHR1 (from UniProt P97639 1-353) (receptor)
2 | 0.23 | – | 208 % of basal | Flag-MCHR1 (rat melanin-concentrating hormone receptor 1 with a Flag epitope tag before the first methionine) (from UniProt P97639 1-353)
